The record followed here is patent US20250333513A1 (Immunocore, published 2025).

For test [1], the target named is T1, extracellular region of human PD-1 (human, UniProt Q15116 25-170).
T1 construct: also called extracellular domain of human PD-1
The test can be described thus: method not given.

For test [2], the target named is T1, extracellular region of human PD-1. The test can be described thus: method not given; lower end of the printed range 50-70 nM.

T1 sequence (Q15116 25-170 limits assumed): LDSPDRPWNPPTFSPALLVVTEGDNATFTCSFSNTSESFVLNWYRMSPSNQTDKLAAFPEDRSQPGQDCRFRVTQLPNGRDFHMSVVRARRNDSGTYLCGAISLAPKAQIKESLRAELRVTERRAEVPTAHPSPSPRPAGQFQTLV

B1: PD-1 agonist VHH (camelid PD-1 agonist VHH) (VHH)
VHH: EVQLVESGGALVQPGGSLRLSCAASGFTFSSYAMTWVRQAPGKGPEWVSAIASDGASTSYLDSVKGRFTVSRDNAKNTLYLQMNSLKPEDTAVYYCARGGYLTYDRYGQGTQVTVSS
notes: also called PD-1 VHH domain; PD-1 VHH antibody
The term Kd denotes the equilibrium constant for the complex coming apart. Read a high Kd as a looser complex. B1 registered a binding half-life in test [1] of 15 to 20 s. Also, in test [2], the equilibrium dissociation constant (Kd) lay in the range of 50 to 70 nM.
